Assay results published in patent US20230027238A1 (SPECTRUM PHARMACEUTICALS, published 2023).
Each block holds one molecule with its values, some of them ahead of it.

How the values were obtained:
[1] = target: GLP-1R on CHO cells (CHO/GLP-1R); experiment: cell-based or functional assay
[2] = target: T1, Chinese hamster ovary (CHO) cell-derived soluble recombinant human G-CSF receptor (human, UniProt Q99062 25-627); experiment: SPR (BIAcore 3000), receptor amine-coupled to the chip, analyte 6.25-100 nmol/L, 25 °C, 1:1 Langmuir fit
T1 construct: extracellular domain; Immobilised by amine coupling on the sensor chip; also called soluble human G-CSF receptor; R&D Systems 381-050/CF
T1 sequence (looked up): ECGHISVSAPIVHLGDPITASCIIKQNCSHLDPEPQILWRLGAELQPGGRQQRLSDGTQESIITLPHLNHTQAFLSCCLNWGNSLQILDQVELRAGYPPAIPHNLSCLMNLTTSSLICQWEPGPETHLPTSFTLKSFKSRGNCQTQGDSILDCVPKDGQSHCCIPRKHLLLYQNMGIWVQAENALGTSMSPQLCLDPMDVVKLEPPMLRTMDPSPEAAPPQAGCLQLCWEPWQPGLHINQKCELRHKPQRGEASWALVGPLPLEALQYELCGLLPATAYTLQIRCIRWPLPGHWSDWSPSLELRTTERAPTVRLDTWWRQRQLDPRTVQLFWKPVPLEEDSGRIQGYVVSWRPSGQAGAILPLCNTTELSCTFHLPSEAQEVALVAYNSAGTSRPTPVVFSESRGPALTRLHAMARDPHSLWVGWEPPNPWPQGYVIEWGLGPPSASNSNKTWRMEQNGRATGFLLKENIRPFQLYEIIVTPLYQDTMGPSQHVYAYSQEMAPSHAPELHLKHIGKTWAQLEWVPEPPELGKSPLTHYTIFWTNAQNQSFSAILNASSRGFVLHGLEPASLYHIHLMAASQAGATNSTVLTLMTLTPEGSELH
Description: Surface plasmon resonance technology and the BIAcore 3000 biosensor (GE healthcare) were employed to measure in vitro binding affinity to the G-CSF receptor. Amine-coupling chemistry was used to immobilize the G-CSF receptor on CMS biosensor chip. […] The CMS sensor chip surface was activated by injecting a 1:1 mixture of 0.1 mol/L N-hydroxysuccinimide (GE healthcare) and 0.1 mol/L 3-(N,N-dimethylamino)propyl-N-ethylcarbodiamide (GE Healthcare). […] The chip surface was then blocked with ethanolamine/HCl (GE Healthcare), pH 8.5, and washed with a regeneration solution (50 mmol/L NaCl; 5 mmol/L NaOH). […] Binding affinity was calculated using the 1:1 Langmuir fitting model for each test material.

[3] = target: T2, Fc fragment of eflapegrastim (human, UniProt P01861 107-325 = IgG part, aglycosylated (made in recombinant E. coli cells)); experiment: ELISA with GST-FcγRIIB, detection with anti-GST antibody
T2 construct: tested alone, without PEG and G-CSF; also called aglycosylated IgG4-Fc fragment; immunoglobulin Fc fragment
T2 sequence (P01861 other isoform, or with tags, fused parts or gaps limits assumed): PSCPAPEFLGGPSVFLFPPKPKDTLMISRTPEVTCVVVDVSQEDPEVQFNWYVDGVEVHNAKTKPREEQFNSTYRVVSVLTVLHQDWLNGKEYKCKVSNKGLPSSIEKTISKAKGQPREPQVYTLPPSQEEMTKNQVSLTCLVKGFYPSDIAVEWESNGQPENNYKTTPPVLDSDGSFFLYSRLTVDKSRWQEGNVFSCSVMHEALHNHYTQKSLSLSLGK
Description: For C1q, FcγRIIB, FcγRIIIA, and FcRn binding assays, serial dilutions of the test materials were added to 96-well microplates coated with C1q, or GST fusion proteins of FcγRIIB or FcγRIIIA, or FcRn αβ2. After incubation and washing, HRP-conjugated anti-C1q antibody was added for C1q binding assay, and rabbit-anti-GST antibody and HRP-conjugated anti-rabbit IgG antibody were sequentially added for FcγRIIB, FcγRIIIA, and FcRn binding assays. The absorbance was measured at 450 nm as described above for FcγRI binding assay.

- % vs. Experimental group, CHO/GLP-1R bioassay [1]: 16.1%
- EC50 (ng/ml), in vitro activity-CHO/GLP-1R bioassay [1]: 59000 ng/mL
Molecule: CA Exendin (lysine)-PEG-(lysine) Fc (Fc fusion)

- Kd [2]: 2.9 nM
B1: pegfilgrastim (ligand, human, UniProt P09919-2 31-204, looked up)
chain: TPLGPASSLPQSFLLKCLEQVRKIQGDGAALQEKLCATYKLCHPEELVLLGHSLGIPWAPLSSCPSQALQLAGCLSQLHSGLFLYQGLLQALEGISPELGPTLDTLQLDVADFATTIWQQMEELGMAPALQPTQGAMPAFASAFQRRAGGVLVASHLQSFLEVSYRVLRHLAQP
modifications: N-terminal methionine residue pegylated with a 20 kDa polyethylene glycol
notes: Commercial product; also called Neulasta

- binding result [3]: no binding
B2: GST fusion protein of FcγRIIB (receptor, UniProt P31994 43-217, looked up)
chain: TPAAPPKAVLKLEPQWINVLQEDSVTLTCRGTHSPESDSIQWFHNGNLIPTHTQPSYRFKANNNDSGEYTCQTGQTSLSDPVHLTVLSEWLVLQTPHLEFQEGETIVLRCHSWKDKPLVKVTFFQNGKSKKFSRSDPNFSIPQANHSHSGDYHCTGNIGYTLYSSKPVTITVQAP
notes: Order of receptor and GST unknown; not shown: GST
